Laboratory results reported in paper PMC10696418.
Where two headings read alike, the source gives them in different places.

Columns and labels:
Assay in all cases: SPR
[1] = molecular target: CRIg-Mut-1 (CRIg Ig V domain mutant K15R/K36R/K62R/K72R/K110R), His-tagged (human)
[2] = molecular target: CRIg-Mut-2 (CRIg Ig V domain mutant K15R/K36R/K62Q/K72R/K110R), His-tagged (human)
[3] = molecular target: wild-type CRIg Ig V domain, His-tagged (human) (UniProt Q9Y279)
[4] = molecular target: wild-type CRIg Ig V domain, His-tagged (human) (UniProt Q9Y279); remark: listed apart in the source

| Kd [1] [nM] | Kd [2] [nM] | Kd [3] [nM] | Ka-1 (two-state model, first step, association rate) [4] [M⁻¹ s⁻¹] | Ka-2 (two-state model, second step, forward rate) [4] [s⁻¹] | Kd [4] [nM] | Kd-1 (two-state model, first step, dissociation rate) [4] [s⁻¹] | Kd-2 (two-state model, second step, reverse rate) [4] [s⁻¹] | Ka-1 (two-state model, first step, association rate) [1] [M⁻¹ s⁻¹] | Ka-2 (two-state model, second step, forward rate) [1] [s⁻¹] | Kd-1 (two-state model, first step, dissociation rate) [1] [s⁻¹] | Kd-2 (two-state model, second step, reverse rate) [1] [s⁻¹] | Ka-1 (two-state model, first step, association rate) [2] [M⁻¹ s⁻¹] | Ka-2 (two-state model, second step, forward rate) [2] [s⁻¹] | Kd-1 (two-state model, first step, dissociation rate) [2] [s⁻¹] | Kd-2 (two-state model, second step, reverse rate) [2] [s⁻¹] | Substance | other results |
| --- | --- | --- | --- | --- | --- | --- | --- | --- | --- | --- | --- | --- | --- | --- | --- | --- | --- |
| 25.2 | 16.2 | 7.29 | 25100 | 0.00166 | 47.2 | 0.00714 | 0.00533 |  |  |  |  |  |  |  |  | C3b (from UniProt P01024 749-1663; P01024 749-1663) (domain or fragment) | koff [1]: 0.000441 s⁻¹; kon [1]: 18200 M⁻¹ s⁻¹; koff [2]: 0.000203 s⁻¹; kon [2]: 12600 M⁻¹ s⁻¹; koff [3]: 0.000125 s⁻¹; kon [3]: 17100 M⁻¹ s⁻¹ |
| 2780 | 1130 |  |  |  |  |  |  | 12000 | 0.0052 | 0.0491 | 0.00928 | 14800 | 0.00262 | 0.0271 | 0.00414 | C3c (from UniProt P01024 23-667; P01024 749-954; P01024 1321-1663) (domain or fragment) |  |
| 115 | 84.6 | 68 | 35800 | 0.00463 | 10.5 | 0.0168 | 0.000105 | 7100 | 0.00589 | 0.0209 | 0.000231 | 10600 | 0.00469 | 0.0191 | 0.000227 | iC3b (from UniProt P01024 23-667; P01024 1321-1663) (domain or fragment) | Ka-1 (two-state model, first step, association rate) [3]: 16000 M⁻¹ s⁻¹; Ka-2 (two-state model, second step, forward rate) [3]: 0.00376 s⁻¹; Kd-1 (two-state model, first step, dissociation rate) [3]: 0.0207 s⁻¹; Kd-2 (two-state model, second step, reverse rate) [3]: 0.000206 s⁻¹ |
